“Also recorded” adds a separate entry of the source.
What was measured:
[1] = assay type: in vitro ADME, feline
Protocol: For plasma extraction, 100 uL of plasma was precipitated by addition of 200 uL methanol in a 1.5 mL protein LoBind eppendorf tube. After vortexing for 10 seconds, the precipitate was pelleted by centrifugation at 13,000 rpm for 15 minutes at 10° C. using a benchtop centrifuge. The supernatant was transferred to a limited volume glass HPLC vial and analyzed by LC/MS as described in the following examples.
To characterize the fsNT-proBNP stable degradation products present after incubation in feline plasma, fsNT-proBNP was added to feline plasma at 1, 5, and 10 μg/mL and incubated at room temperature. At 0, 24, 48, 96, and 192 hours, 100 μL aliquots of the plasma were collected and combined with 200 μL of methanol to form a precipitate. After centrifugation, the supernatant was analyzed for stable peptides by LC/MS as described in Example 1.
The relative abundance of several fragments from the N-terminal, capture, and C-terminal regions were evaluated over time.

feline plasma = details: room temperature, up to 192 hours

Row | Sequence | prevalence of polypeptide fragments in plasma [1] | fragment found (feline plasma)
1 | LQQGHSPAESWEAQEEPPARVLAPHDNVLR (Preferred Feline NT-proBNP C-Terminal Peptide Plasma Degradent) [SEQ ID NO:10] | most prevalent | 
2 | ASEASAIQELLDGLRDTVSEL (Preferred Feline NT-proBNP N-Terminal Peptide Plasma Degradent) [SEQ ID NO: 5] | most prevalent | 
3 | LGPLQQGHSPAESWEAQEEPPARVLAPHDNVLR (Preferred Feline NT-proBNP C-Terminal Peptide Plasma Degradent) [SEQ ID NO: 9] | most prevalent | 
4 | HPLGGPGPASEASAIQELLDGLRDTVSELQEAQMALGPLQQGHSPAESWEAQEEPPARVLAPHDNVLRALRRLGSSKM |  | ASEASAIQELLDGLRDTVSEL, major; also recorded: DGLRDTVSEL; also recorded: LDGLRDTVSELQEAQM; also recorded: LGPLQQGHSPAESWEAQEEPPAR; also recorded: LGPLQQGHSPAESWEAQEEPPARVLAPHDNVLR, major; also recorded: LQQGHSPAESWEAQEEPPARVLAPHDNVLR, major; also recorded: VLAPHDNVLR

Reference: patent publication US8481333B2 (IDEXX Laboratories, Inc., priority 2011, dated 2013)
